Measured values taken from the supplement of paper PMC9170038.

How the values were obtained:
MS2 coat protein [1] = test: apparent KD of MS2 coat protein, switch OFF state (with FMN for OFF switches, without FMN for ON switches); designed switch direction (-1 OFF switch, 1 ON switch): -1; higher = weaker reporter binding; details: FMN input: 0 or 200 uM; Eterna round: R93 (includes R88 designs)
In short: (§1)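 Designed RNA switches were transcribed on-chip from Illumina sequencing clusters and titrated with SNAP-549-labelled MS2 coat protein in twofold steps from 0.7 or 1.5 nM up to 3 µM. Each step lasted 0.8–1.5 h at first and 10–20 min by the end, in 100 mM Tris-HCl pH 7.5, 80 mM KCl and 4 mM MgCl2, without or with constant ligand. Apparent KD is the median, for each design, of fits to normalised cluster binding curves.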

MS2 coat protein [2] = test: apparent KD of MS2 coat protein, switch ON state; designed switch direction (-1 OFF switch, 1 ON switch): -1; higher = weaker reporter binding; details: FMN input: 0 or 200 uM; Eterna round: R93 (includes R88 designs)
In short: as §1

## GGUGGCGUAGGAUAUACAUGAGGAUCACCCAUGUGAGAGAAAAAAGUGAGAAAGAAAAGUAGAAGGACGUUACG [salish99-ex3-126]
MS2 coat protein [1]
  apparent KD of MS2 coat protein: 0.147 µM
MS2 coat protein [2]
  apparent KD of MS2 coat protein: 0.0403 µM

## CUCUUGUGAGGAUAUUGAAGAAAAGAAGAGAAAGAAAAGAACAAGAAGGCACAUGAGGAUCACCCAUGUAAGAA [EteRNA is fun!]
MS2 coat protein [1]
  apparent KD of MS2 coat protein: 0.0442 µM
MS2 coat protein [2]
  apparent KD of MS2 coat protein: 0.0379 µM

## AAGAAGUGAGGAUAUUCGGAUAGGAAAACGAAAACCUAUCCGAAGAAGGCACAUGAGGAUCACCCAUGUAAAAA [Mat - Exaclusion 4 - Eli mod - D41]
MS2 coat protein [1]
  apparent KD of MS2 coat protein: 0.0543 µM
MS2 coat protein [2]
  apparent KD of MS2 coat protein: 0.0367 µM

## AUUAUGUAAGGAUAUGUACGAACAACAAAACAAAUAACGGUACAGAAGGUACAUGAGGAUCACCCAUGUAUAAA [May 71]
MS2 coat protein [1]
  apparent KD of MS2 coat protein: 0.0214 µM
MS2 coat protein [2]
  apparent KD of MS2 coat protein: 0.0236 µM

## CAGUACUGAGGAUAUACAUGAGGAUCACCCAUGUAUUCCAGCUAGGAAACUAGCAAAUGUAGAAGGCAGUACUG [Ex3: 825]
MS2 coat protein [1]
  apparent KD of MS2 coat protein: 0.0148 µM
MS2 coat protein [2]
  apparent KD of MS2 coat protein: 0.014 µM

## AGCAAGUGAGGAUAUGCGAAGUCAGGACAAACACUGACGAAGCAGAAGGCACAUGAGGAUCACCCAUGUAAGCA [Mat - Exaclusion 4 - Eli mod - D60]
MS2 coat protein [1]
  apparent KD of MS2 coat protein: 0.0298 µM
MS2 coat protein [2]
  apparent KD of MS2 coat protein: 0.0288 µM

## ACUAACAGAGGAUAUACUAACAAACCUCAAACAUACAUCAAACAUGAGGAUCACCCAUGUAGAAGGCUGAAACU [JR_Exc002_Sub005]
MS2 coat protein [1]
  apparent KD of MS2 coat protein: 0.027 µM
MS2 coat protein [2]
  apparent KD of MS2 coat protein: 0.0267 µM

## AAACCACAUGAGGAUCACCCAUGUCAGGAUAUGAACGAAAUAAAAUAAAAAUAAAAGUUCAGAAGGGACGAAAA [Mat - Exclusion 1 - Eli mod - D17]
MS2 coat protein [1]
  apparent KD of MS2 coat protein: 0.0338 µM
MS2 coat protein [2]
  apparent KD of MS2 coat protein: 0.0273 µM

## AGAAAGUCAGGAUAUACGAAAGUGCGAAAGCACAAAAGGGAACAUGAGGAUCACCCAUGUAGAAGGGACAAGAA [Diamond 77]
MS2 coat protein [1]
  apparent KD of MS2 coat protein: 0.17 µM
MS2 coat protein [2]
  apparent KD of MS2 coat protein: 0.0914 µM

## UAAAAACAUGAGGAUCACCCAUGUGAGGAUAUGUACGAAAUAAAUAAAAAAUAAAAGUACAGAAGGCACAAAAU [Mat - Exclusion 1 - Eli mod - D6]
MS2 coat protein [1]
  apparent KD of MS2 coat protein: 0.0526 µM
MS2 coat protein [2]
  apparent KD of MS2 coat protein: 0.037 µM

## AAACCACAUGAGGAUCACCCAUGUAAGGAUAUGAACGAAAUAAAAUAAAAAUAAAAGUUCAGAAGGUACAAAAA [Mat - Exclusion 1 - Eli mod - D22]
MS2 coat protein [1]
  apparent KD of MS2 coat protein: 0.0221 µM
MS2 coat protein [2]
  apparent KD of MS2 coat protein: 0.0226 µM

## AAAACUGGAGGAUAUACGAACAUGUCAAAAGACGUGAAGGGACAUGAGGAUCACCCAUGUAGAAGGCUAGAAAA [JL Stem Breaker 10]
MS2 coat protein [1]
  apparent KD of MS2 coat protein: 0.0342 µM
MS2 coat protein [2]
  apparent KD of MS2 coat protein: 0.0523 µM

## AGUCCAGAAGGAUAUACAUAGGUGAAAAAAAAAAAAAAACUACAUGAGGAUCACCCAUGUAGAAGGUCUGGACA [Mod of Brourd]
MS2 coat protein [1]
  apparent KD of MS2 coat protein: 0.0255 µM
MS2 coat protein [2]
  apparent KD of MS2 coat protein: 0.0586 µM

## AAAAAGGCAGGAUAUGCAUACACACGAAAAAAAAAACUGGGACAUGAGGAUCACCCAUGUAGAAGGGCCAAAAA [Dora Explored 9 - Jieux - Exclusion 2]
MS2 coat protein [1]
  apparent KD of MS2 coat protein: 0.0419 µM
MS2 coat protein [2]
  apparent KD of MS2 coat protein: 0.0675 µM

## AAAUGACAUGAGGAUCACCCAUGUCAGGAUAUGACUUGAAAAAAAAAAAAAAAACAUGUCAGAAGGGACAUGGA [Design 51: Sub-opt G]
MS2 coat protein [1]
  apparent KD of MS2 coat protein: 0.0222 µM
MS2 coat protein [2]
  apparent KD of MS2 coat protein: 0.0228 µM

## GGUUGGCGAGGAUAUACAUGAGGAUCACCCAUGUGAGAGAAAAUAGUGAGAAAGAAAAGUAGAAGGCGCUGACG [salish99-ex3-42]
MS2 coat protein [1]
  apparent KD of MS2 coat protein: 0.235 µM
MS2 coat protein [2]
  apparent KD of MS2 coat protein: 0.113 µM

## AGUUGGCGAGGAUAUACAUGAGGAUCACCCAUGUGAGAGAAUAAAGUGAGAAAGAAAAGUAGAAGGCGCUCACA [JL Lego Mod 16]
MS2 coat protein [1]
  apparent KD of MS2 coat protein: 0.0451 µM
MS2 coat protein [2]
  apparent KD of MS2 coat protein: 0.0603 µM

## AAGUAUAGAGGAUAUACAUAGAUACAGAUUCAUGUAGAACUACAUGAGGAUCACCCAUGUAGAAGGCUAUAAUA [AJ 34]
MS2 coat protein [1]
  apparent KD of MS2 coat protein: 0.0279 µM
MS2 coat protein [2]
  apparent KD of MS2 coat protein: 0.0194 µM

## ACAGUUACAGGAUAUACAAGGAAAAAUAAAAAUAAAAUUCAACAUGAGGAUCACCCAUGUAGAAGGGUAACUGA [Ex2 Design 200: Random 15]
MS2 coat protein [1]
  apparent KD of MS2 coat protein: 0.0321 µM
MS2 coat protein [2]
  apparent KD of MS2 coat protein: 0.03 µM

## AACAGUACAGGAUAUACAUGAGGAUCACCCAUGUGAGAGAAAUAAAACAAAAAUAAAAGUAGAAGGGUACUGAA [Mat - Exclusion 3 - Eli mod - D67]
MS2 coat protein [1]
  apparent KD of MS2 coat protein: 0.036 µM
MS2 coat protein [2]
  apparent KD of MS2 coat protein: 0.0318 µM

## AACAUGUUAGGAUAUAGAAGAAAAGAAAAGAAAGAAAAGAACUAGAAGGAACAUGAGGAUCACCCAUGUAAGAA [EteRNA is fun!]
MS2 coat protein [1]
  apparent KD of MS2 coat protein: 0.0261 µM
MS2 coat protein [2]
  apparent KD of MS2 coat protein: 0.0309 µM

## AUCGAUCGAGGAUAUACAUGAGGAUCACCCAUGUAAAAAAAAAAAAAGGCCUCAGGACGUAGAAGGCGACGCAA [JR_Exc003_Sub402]
MS2 coat protein [1]
  apparent KD of MS2 coat protein: 0.0226 µM
MS2 coat protein [2]
  apparent KD of MS2 coat protein: 0.0163 µM

## GGAAAGUCAGGAUAUGGAUAAUAAAUACAAAUAGAAACAAACCAGAAGGGACAUGAGGAUCACCCAUGUAAACA [Exclusion 4 Electric]
MS2 coat protein [1]
  apparent KD of MS2 coat protein: 0.0226 µM
MS2 coat protein [2]
  apparent KD of MS2 coat protein: 0.0353 µM

## AAGAAAGGAGGAUAUACAAGAAAGAAAGAAAAGAAAAGAAAACAUGAGGAUCACCCAUGUAGAAGGCCUUAGAA [EteRNA is fun!]
MS2 coat protein [1]
  apparent KD of MS2 coat protein: 0.0178 µM
MS2 coat protein [2]
  apparent KD of MS2 coat protein: 0.0269 µM

## AUAAAUCGAGGAUAUACAUGAGGAUCACCCAUGUAAAUAAAUAAAUAAUCCUCAGGAAGUAGAAGGCGAAAUAA [JR_Exc003_Sub019]
MS2 coat protein [1]
  apparent KD of MS2 coat protein: 0.0272 µM
MS2 coat protein [2]
  apparent KD of MS2 coat protein: 0.0151 µM

## GUAAACCUAGGAUAUACAUGAGGAUCACCCAUGUAAAAAAUAAUAAAAAGAAAAAAAAGUAGAAGGAGGUAGAU [JR_Exc003_Sub1226]
MS2 coat protein [1]
  apparent KD of MS2 coat protein: 0.044 µM
MS2 coat protein [2]
  apparent KD of MS2 coat protein: 0.0291 µM

## AAAAAGGCAGGAUAUACAAAAAAAAAAAAAGAGGAGGAGGGACAUGAGGAUCACCCAUGUAGAAGGGCCAAAAA [William Edward Burghardt 'W. E. B.' Du Bois]
MS2 coat protein [1]
  apparent KD of MS2 coat protein: 0.0637 µM
MS2 coat protein [2]
  apparent KD of MS2 coat protein: 0.0354 µM

## CUCAAGUGAGGAUAUCAGUAGUAAAAAAAUAAAAUUACUACUGAGAAGGCACAUGAGGAUCACCCAUGUGUCUU [EX4 333: Super Stable 33]
MS2 coat protein [1]
  apparent KD of MS2 coat protein: 0.0111 µM
MS2 coat protein [2]
  apparent KD of MS2 coat protein: 0.0141 µM

## GAAAAGUGAGGAUAUACAUGAGGAUCACCCAUGUGUAUAAAAAAAUACACAAAAGAAAGUAGAAGGCACUAAAG [Mat - Exclusion 3 - Mayanna mod - D110]
MS2 coat protein [1]
  apparent KD of MS2 coat protein: 0.0487 µM
MS2 coat protein [2]
  apparent KD of MS2 coat protein: 0.0231 µM

## CUCUUGUCAGGAUAUCUAAGAAAAGAAAAGAAAGAAAAGAAAGAGAAGGGACAUGAGGAUCACCCAUGUAAGAA [EteRNA is fun!]
MS2 coat protein [1]
  apparent KD of MS2 coat protein: 0.0424 µM
MS2 coat protein [2]
  apparent KD of MS2 coat protein: 0.0463 µM

## AGAAAACAUGAGGAUCACCCAUGUAAGGAUAUGCUGAAAAACACGGAAAAAACGUGCAGCAGAAGGUACAAAGA [Mat - Exclusion 1 - Eli mod - D95]
MS2 coat protein [1]
  apparent KD of MS2 coat protein: 0.0408 µM
MS2 coat protein [2]
  apparent KD of MS2 coat protein: 0.0224 µM

## ACAGUUACAGGAUAUACAAAGGUAACUUCAAAGAAAACUCUACAUGAGGAUCACCCAUGUAGAAGGGUAACUGA [Ex2 Design 200 (probably): Random 17]
MS2 coat protein [1]
  apparent KD of MS2 coat protein: 0.0182 µM
MS2 coat protein [2]
  apparent KD of MS2 coat protein: 0.0143 µM

## AACAUGUUAGGAUAUCAAAGAAAAGAAAAGAAAGAAAAGAAUGAGAAGGAACAUGAGGAUCACCCAUGUAAGAA [EteRNA is fun!]
MS2 coat protein [1]
  apparent KD of MS2 coat protein: 0.0221 µM
MS2 coat protein [2]
  apparent KD of MS2 coat protein: 0.023 µM
